Test results taken from EP0957164B1.

Target: insulin (UniProt P01308)
Assay: PEG precipitation assay, A14-125I-insulin tracer displaced by unlabeled insulin, BHK medium

Chain of UniProt P01308 (P01308 90-110 limits assumed, chain 1 of 2): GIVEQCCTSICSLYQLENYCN
Chain of UniProt P01308 (P01308 25-54 limits assumed, chain 2 of 2): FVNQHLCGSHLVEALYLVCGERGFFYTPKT

Substance | Kd [nM]
IRΔ685 (receptor) | 6.4
IRΔ703 (receptor) | 4.4
IRΔ673 (receptor) | 1.1

Further substances by falling Kd, results first:

Kd [nM] | Substance
4.4 | IGFIR(Δ459-672).1-68, 704-729.IR (receptor)
2.1 | IGFIR(Δ459-672).1-68IR (receptor)
